The record followed here is article PMC7766583 (International Journal of Molecular Sciences, 2020).

One test has as its target T1, amyloid beta 1-40 (human, UniProt P05067 672-711).
T1 construct: amyloid beta fragment 1-40 (40 amino acids), human, synthetic; numbers count on: the Aβ peptide; Used in a monomeric form (Preparation C) and an oligomeric form (Preparation A); The two forms are told apart by the assay; also called Aβ_(1–40); Aβ; source: synthetic peptide; bought: AnaSpec
The test is described as follows: SPR; cypD captured on an amine-coupled anti-cypD antibody; monomeric Aβ (Preparation C for Aβ1-40, Preparation B for Aβ1-42) injected at 1 μM for 5 min; running buffer 10 mM HEPES pH 7.4, 5 mM Na+, BSA 200 μg/mL, K+ 0-500 mM, Mg2+ 0-50 mM; 25 °C, 20 µL/min; reference-compensated response 5 min after return to buffer. To be noted: both partners purified.

Another test addresses T2, amyloid beta 1-42 (human, UniProt P05067 672-713).
T2 construct: amyloid beta fragment 1-42 (42 amino acids), human, synthetic; numbers count on: the Aβ peptide; Used in an oligomeric form (Preparation A) and a monomeric form (Preparation B); The two forms are told apart by the assay; also called Aβ_(1–42); Aβ; source: synthetic peptide; bought: AnaSpec
The test is described as follows: SPR; cypD captured on an amine-coupled anti-cypD antibody; oligomeric Aβ (Preparation A) injected at 1 μM for 5 min; running buffer 10 mM HEPES pH 7.4, 5 mM Na+, BSA 200 μg/mL, K+ 0-500 mM, Mg2+ 0-50 mM; 25 °C, 20 µL/min; reference-compensated response 5 min after return to buffer. The following applies: both partners purified.

T1 sequence (P05067 672-711): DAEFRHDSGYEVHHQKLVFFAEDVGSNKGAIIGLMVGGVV
T2 sequence (P05067 672-713): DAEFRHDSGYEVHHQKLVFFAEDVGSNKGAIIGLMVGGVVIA

B1: cyclophilin D (enzyme)
chain: not shown
notes: cyclophilin D (cypD), human, recombinant, bought from Fitzgerald; also called cypD; source: bought: Fitzgerald (human, recombinant)
With B1, the binding result with amyloid beta 1-40 and in the test with amyloid beta 1-42 was “binds” throughout.
